Tested on: Equine melanoma tumors
Assay: RNA-Seq transcriptomic analysis (DEGs, EdgeR) of treated equine melanoma tumors excised 6 h and 12 h after injection
Type: in vivo, Equus caballus
Description: Equine melanoma tumors were used in experiments with the administration of the compound of the invention, for transcriptomic analysis at different points in time. This translational experiment was carried out at Sao Joaquim Farm (SP) and the samples were transported to the Instituto Butantan, in the city of Sao Paulo. The experiment was designed with non-treated control samples at 0 h (PBS) and the treated tumors were excised 6 h and 12 h after the injection of 1 mg of polypeptide per kg of tumor. For each time point, two tumors were removed from three different animals, producing six tumors per time point. All 18 cDNA libraries were prepared following Illumina's TruSeq® RNA Preparation Kit Kits v2 protocol, and then sequenced using HiSeq 1500 Illumina technology, generating 2×100 bp chain-specific paired readings. The raw sequencing readings had the contaminants removed with bowtie2 2.2.5, and then trimmomatic was used for quality control of the sequences, to cut and remove readings with regions of low complexity and enriched with homopolymers, poly-A/T/N tails, low quality adapter strings and bases, with the fastq-mcf 1.04.662 software. The readings were filtered if more than 90% of the readings correspond to regions of homopolymer or of low complexity. Subsequently, cut if the average quality score was less than 25 in a window size equal to 15. After cutting, all readings less than 40 bp were discarded.
Total RNA was isolated from cells grown with Trizol (Ambion, Life Technologies) and purified with a Mini RNAspin kit (GE Healthcare) according to the manufacturer's instructions, with prolonged treatment with DNase I for 1 h.
RNA quality was assessed with an Agilent 2100 Bioanalyzer RNA Pico assay. RNA was quantified using the Rib-Green Quant-iT and RNA reagent kit (Invitrogen, Life Technologies). The messenger RNA (mRNA) was isolated and used to prepare the complementary DNA (cDNA) libraries following the instructions of the TruSeq RNA Sample Prep Kit V2 (Illumina, San Diego, Calif.). Briefly, the mRNA was isolated with oligo-dT and purified. Then, the mRNA was fragmented by heating to 94° C. (4 min) in fragmentation buffer. The double-stranded cDNA was synthesized, repaired at the end and tail A. The sequencing adapters were then attached to the cDNA fragments, according to the manufacturer's protocol. The cDNA fragments were enriched after 15 rounds of PCR amplification. The quality control of the library was assessed by size distribution of the cDNA libraries measured using 2100 Bioanalyzer with DNA1000 assay (Agilent Technologies) and a StepOnePlus real-time PCR system from ABI were used to quantify the sample library before sequencing. The cDNA library was sequenced on the Illumina HiSeq 1500 System, in a final flow cell paired with Rapid in a 200 pair strategy of 2-101 bp pairing strategy.
The in-silico analysis of RNA-Seq comprises several quality steps and transcriptomic quantification algorithms that are understood in the present invention as “pipeline”. (FIG. 19). The quality check was performed using FastQC3. Hisat214 was used to align readings against the horse's reference genome (Equus caballus) (annotation version 89). To map and quantify transcriptions, the feature Counts was used, resulting in a table of genetic IDs versus samples with raw reading counts. Then, differentially expressed genes (DEGs) were calculated using the EdgeR package. Genes with less than one count per million (CPM) were filtered out. The DEGs were calculated by crossing the sample values of a) 6 h after treatment (6 h)×control (0 h); b) 12 h after treatment (12 h)×control; and also, c) 12 h×6 h. DEGs are defined as an absolute value of log 2 fold change between two groups (LFC)>1 and false discovery rate (FDR)<0.05. […]

[1] = in vivo administration, RNA-Seq
[2] = treated equine melanoma tumors, RNA-Seq

B1: Amblyomin-X: recombinant Kunitz type protein identified in a cDNA library of Amblyomma sculptum tick salivary glands (protein)
chain: MRQLAVLALVIFTGMCVESQSANSKAVCNLPKLAGDETCSNKTEIRWYYNGTACEAFIFKGCGGNDNNFDRVDDCQRLCEEQTHFHFESPKLICFKVQDYWILNDIMKKNLTGISLKSEEEDADSGEID
modifications: Amblyomin-X
notes: recombinant Kunitz type protein identified in a cDNA library of Amblyomma sculptum tick salivary glands
B1 was tested, and the “logFC6, gene IFIH1” value (RNA-seq, 6 h after treatment) was 0.851, the “logFC6, gene IFIT1” value (RNA-seq, 6 h after treatment) was 2.574 and the “logFC6, gene IL1B” value (RNA-seq, 6 h after treatment) was 4.309. For the same molecule, the “logFC6, gene IL1RN” value (RNA-seq, 6 h after treatment) was 2.823, the “logFC6, gene IL13RA1” value (RNA-seq, 6 h after treatment) was 1.408 and the “logFC6, gene IRF9” value (RNA-seq, 6 h after treatment) was 1.136. The “logFC6, gene ITGA1” value (RNA-seq, 6 h after treatment) was 1.348, the “logFC6, gene MYH1” value (RNA-seq, 6 h after treatment) was −8.4 and the “logFC6, gene MYH3” value (RNA-seq, 6 h after treatment) was −3.643. For the same molecule, the “logFC6, gene MYL2” value (RNA-seq, 6 h after treatment) was −8.697, the “logFC6, gene MYLPF” value (RNA-seq, 6 h after treatment) was −5.872 and the “logFC6, gene NTNG1” value (RNA-seq, 6 h after treatment) was −1.959. The “logFC6, gene OAS2” value (RNA-seq, 6 h after treatment) was 1.463, the “logFC6, gene PARP9” value (RNA-seq, 6 h after treatment) was 1.816 and the “logFC6, gene PER1” value (RNA-seq, 6 h after treatment) was −1.474. For the same molecule, the “logFC6, gene PIK3R6” value (RNA-seq, 6 h after treatment) was −1.277, the “logFC6, gene RUNX1” value (RNA-seq, 6 h after treatment) was 1.723 and the “logFC6, gene SAA1” value (RNA-seq, 6 h after treatment) was 3.456. The “logFC6, gene SELP” value (RNA-seq, 6 h after treatment) was 2.596, the “logFC6, gene SLPI” value (RNA-seq, 6 h after treatment) was 3.009 and the “logFC6, gene SOCS3” value (RNA-seq, 6 h after treatment) was 2.979. For the same molecule, the “logFC6, gene STAT1” value (RNA-seq, 6 h after treatment) was 1.085, the “logFC6, gene TAT” value (RNA-seq, 6 h after treatment) was 5.292 and the “logFC6, gene TEAD4” value (RNA-seq, 6 h after treatment) was 1.685. The “logFC6, gene THBS1” value (RNA-seq, 6 h after treatment) was 1.819, the “logFC6, gene TLR2” value (RNA-seq, 6 h after treatment) was 1.5586 and the “logFC6, gene TREM1” value (RNA-seq, 6 h after treatment) was 5.551. The “logFC12, gene ACTN1” value (RNA-seq, 12 h after treatment) was 1.006, the “logFC12, gene BCL3” value (RNA-seq, 12 h after treatment) was 1.709 and the “logFC12, gene BIRC3” value (RNA-seq, 12 h after treatment) was 0.9146. The “logFC12, gene CAD” value (RNA-seq, 12 h after treatment) was 1.028, the “logFC12, gene CCL2” value (RNA-seq, 12 h after treatment) was 3.517 and the “logFC12, gene CDO1” value (RNA-seq, 12 h after treatment) was −2.408. For the same molecule, the “logFC12, gene CTSL” value (RNA-seq, 12 h after treatment) was 1.385, the “logFC12, gene CXCL6” value (RNA-seq, 12 h after treatment) was 3.417 and the “logFC12, gene DDX58” value (RNA-seq, 12 h after treatment) was 1.76. For the same molecule, the “logFC12, gene F12” value (RNA-seq, 12 h after treatment) was 3.104, the “logFC12, gene FOSL1” value (RNA-seq, 12 h after treatment) was 4.028 and the “logFC12, gene FSCN1” value (RNA-seq, 12 h after treatment) was 1.831. The “logFC12, gene HMOX1” value (RNA-seq, 12 h after treatment) was 1.117, the “logFC12, gene HSPA6” value (RNA-seq, 12 h after treatment) was 4.55 and the “logFC12, gene IFI35” value (RNA-seq, 12 h after treatment) was 1.639. The “logFC12, gene IFIH1” value (RNA-seq, 12 h after treatment) was 1.823, the “logFC12, gene IFIT1” value (RNA-seq, 12 h after treatment) was 2.655 and the “logFC12, gene IL1B” value (RNA-seq, 12 h after treatment) was 3.152. For the same molecule, the “logFC12, gene IL1RN” value (RNA-seq, 12 h after treatment) was 2.805, the “logFC12, gene IL13RA1” value (RNA-seq, 12 h after treatment) was 1.28 and the “logFC12, gene IRF9” value (RNA-seq, 12 h after treatment) was 1.462. The “logFC12, gene ITGA1” value (RNA-seq, 12 h after treatment) was 1.094, the “logFC12, gene MYH1” value (RNA-seq, 12 h after treatment) was −8.31 and the “logFC12, gene MYH3” value (RNA-seq, 12 h after treatment) was 3.004. The “logFC12, gene MYL2” value (RNA-seq, 12 h after treatment) was −7.917, the “logFC12, gene MYLPF” value (RNA-seq, 12 h after treatment) was −5.428 and the “logFC12, gene NTNG1” value (RNA-seq, 12 h after treatment) was −2.943. For the same molecule, the “logFC12, gene OAS2” value (RNA-seq, 12 h after treatment) was 2.491, the “logFC12, gene PARP9” value (RNA-seq, 12 h after treatment) was 2.109 and the “logFC12, gene PER1” value (RNA-seq, 12 h after treatment) was −1.139. For the same molecule, the “logFC12, gene PIK3R6” value (RNA-seq, 12 h after treatment) was −1.356, the “logFC12, gene RUNX1” value (RNA-seq, 12 h after treatment) was 1.443 and the “logFC12, gene SAA1” value (RNA-seq, 12 h after treatment) was 3.902. The “logFC12, gene SELP” value (RNA-seq, 12 h after treatment) was 2.395, the “logFC12, gene SLPI” value (RNA-seq, 12 h after treatment) was 3.051 and the “logFC12, gene SOCS3” value (RNA-seq, 12 h after treatment) was 2.423. The “logFC12, gene STAT1” value (RNA-seq, 12 h after treatment) was 1.267, the “logFC12, gene TAT” value (RNA-seq, 12 h after treatment) was 5.521 and the “logFC12, gene TEAD4” value (RNA-seq, 12 h after treatment) was 1.949. The “logFC12, gene THBS1” value (RNA-seq, 12 h after treatment) was 0.8749, the “logFC12, gene TLR2” value (RNA-seq, 12 h after treatment) was 1.839 and the “logFC12, gene TREM1” value (RNA-seq, 12 h after treatment) was 5.559. The “LFC SELE (6 h×0 h)” value (e-selectin (SELE) gene, log2 fold change, 6 h after treatment vs control 0 h, RNA-Seq) was 2.33, the “LFC SELE (12 h×0 h)” value (e-selectin (SELE) gene, log2 fold change, 12 h after treatment vs control 0 h, RNA-Seq) was 1.78 and the “logFC6 BATF3” value (gene BATF3, RNA-seq, 6 hours after treatment) was 3.137. The “logFC12 BATF3” value (gene BATF3, RNA-seq, 12 hours after treatment) was 2.91, the “logFC6 CAV3” value (gene CAV3, RNA-seq, 6 hours after treatment) was −3.0363 and the “logFC12 CAV3” value (gene CAV3, RNA-seq, 12 hours after treatment) was −6.6813. For the same molecule, the “logFC6 CCR7” value (gene CCR7, RNA-seq, 6 hours after treatment) was 2.652, the “logFC12 CCR7” value (gene CCR7, RNA-seq, 12 hours after treatment) was 2.359 and the “logFC6 CDH15” value (gene CDH15, RNA-seq, 6 hours after treatment) was −2.616. The “logFC12 CDH15” value (gene CDH15, RNA-seq, 12 hours after treatment) was −1.702, the “logFC6 EIF2AK2” value (gene EIF2AK2, RNA-seq, 6 hours after treatment) was 2.4 and the “logFC12 EIF2AK2” value (gene EIF2AK2, RNA-seq, 12 hours after treatment) was 2.959. For the same molecule, the “logFC6 ETV6” value (gene ETV6, RNA-seq, 6 hours after treatment) was 1.795, the “logFC12 ETV6” value (gene ETV6, RNA-seq, 12 hours after treatment) was 1.871 and the “logFC6 IL7R” value (gene IL7R, RNA-seq, 6 hours after treatment) was 2.532. For the same molecule, the “logFC12 IL7R” value (gene IL7R, RNA-seq, 12 hours after treatment) was 2.227, the “logFC6 IL18RAP” value (gene IL18RAP, RNA-seq, 6 hours after treatment) was 2.817 and the “logFC12 IL18RAP” value (gene IL18RAP, RNA-seq, 12 hours after treatment) was 2.593. The “logFC6 MYLK2” value (gene MYLK2, RNA-seq, 6 hours after treatment) was −5.152, the “logFC12 MYLK2” value (gene MYLK2, RNA-seq, 12 hours after treatment) was −5.672 and the “logFC6 NECTIN3” value (gene NECTIN3, RNA-seq, 6 hours after treatment) was 1.287. For the same molecule, the “logFC12 NECTIN3” value (gene NECTIN3, RNA-seq, 12 hours after treatment) was 1.113, the “logFC6 NLRC4” value (gene NLRC4, RNA-seq, 6 hours after treatment) was 5.503 and the “logFC12 NLRC4” value (gene NLRC4, RNA-seq, 12 hours after treatment) was 5.687. The “logFC6 NLRP12” value (gene NLRP12, RNA-seq, 6 hours after treatment) was 3.4, the “logFC12 NLRP12” value (gene NLRP12, RNA-seq, 12 hours after treatment) was 2.297 and the “logFC6 OAS3” value (gene OAS3, RNA-seq, 6 hours after treatment) was 1.716. The “logFC12 OAS3” value (gene OAS3, RNA-seq, 12 hours after treatment) was 2.112, the “logFC6 PRKCQ” value (gene PRKCQ, RNA-seq, 6 hours after treatment) was −1.531 and the “logFC12 PRKCQ” value (gene PRKCQ, RNA-seq, 12 hours after treatment) was −3.021. For the same molecule, the “DEG modulation of ACTA1 and ACTN2” value [1] was “high negative regulation”, the “DEG modulation of ACTN1 and ACTR3” value [1] was “positive regulation” and the “DEG modulation of TUBB and TUBB6 (Tubulin family)” value [1] was “positive regulation”. The “expression of Interferons (type 1 interferon, IFN alpha and IFN beta)” value [2] was “does not lead to the detectable expression” and the “expression of the NOXA gene (PMAIP1)” value [2] was “did not induce the detectable expression”.

Source: patent publication US12329806B2, “Compound for modulating rlr, tlr, oas and/or oncostatin m pathways, use thereof for preparing a medicine, composition, method for modulating said pathways and method of treatment” (Instituto Butantan, priority 2018, dated 2025)
